Biological target: GAAP-1 (Homo sapiens) (UniProt P15822)
Test: cell_activity
Conditions: luciferase vs empty vector

Chain of GAAP-1 (Homo sapiens) (P15822 other isoform, or with tags, fused parts or gaps): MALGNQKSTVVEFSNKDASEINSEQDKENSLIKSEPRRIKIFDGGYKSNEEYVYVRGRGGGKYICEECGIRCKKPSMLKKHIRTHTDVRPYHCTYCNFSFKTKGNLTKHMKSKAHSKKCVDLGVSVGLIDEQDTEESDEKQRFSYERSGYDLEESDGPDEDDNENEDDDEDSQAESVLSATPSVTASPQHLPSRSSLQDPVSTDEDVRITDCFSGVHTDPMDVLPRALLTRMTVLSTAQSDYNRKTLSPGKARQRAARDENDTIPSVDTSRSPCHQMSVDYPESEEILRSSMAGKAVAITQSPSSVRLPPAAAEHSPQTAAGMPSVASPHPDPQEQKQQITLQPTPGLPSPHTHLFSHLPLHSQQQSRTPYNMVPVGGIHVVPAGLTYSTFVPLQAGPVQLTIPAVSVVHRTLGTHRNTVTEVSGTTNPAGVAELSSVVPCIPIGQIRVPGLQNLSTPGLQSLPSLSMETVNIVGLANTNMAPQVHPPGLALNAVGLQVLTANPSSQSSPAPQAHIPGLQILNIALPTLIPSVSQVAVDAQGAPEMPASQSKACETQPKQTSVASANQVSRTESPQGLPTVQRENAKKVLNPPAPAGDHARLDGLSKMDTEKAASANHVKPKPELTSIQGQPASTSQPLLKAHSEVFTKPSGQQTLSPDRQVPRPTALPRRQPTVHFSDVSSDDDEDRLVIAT

Row | Substance | activity [fold] | activity (K562 in text, U937 in figure legend) [fold]
1 | IPCS-SV40 chimeric promoter | 2.5 | 
2 | IRF1 promoter luciferase | 2.5 | 
3 | p53 promoter luciferase |  | 2.5
